Results taken from paper PMC9482650, “Quantitative fragmentomics allow affinity mapping of interactomes” (Nature Communications, 2022).

T1: LRRC7, Q96NW7
T1 sequence (Q96NW7 1440-1537, limits assumed, looked up): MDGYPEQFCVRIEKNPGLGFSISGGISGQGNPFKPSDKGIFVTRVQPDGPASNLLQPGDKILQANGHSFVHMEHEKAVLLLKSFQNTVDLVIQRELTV

T2: MPP6, Q9NZW5
T2 sequence (Q9NZW5 125-219, limits assumed, looked up): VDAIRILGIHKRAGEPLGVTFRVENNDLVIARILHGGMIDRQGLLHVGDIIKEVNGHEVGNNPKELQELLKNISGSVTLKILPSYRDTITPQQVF

T3: SNTB1, Q13884
T3 sequence (Q13884 107-205, limits assumed, looked up): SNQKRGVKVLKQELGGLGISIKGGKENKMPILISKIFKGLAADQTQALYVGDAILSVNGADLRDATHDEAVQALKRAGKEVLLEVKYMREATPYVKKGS

T4: SIPA1L2, Q9P2F8
T4 sequence (Q9P2F8 945-1036, limits assumed, looked up): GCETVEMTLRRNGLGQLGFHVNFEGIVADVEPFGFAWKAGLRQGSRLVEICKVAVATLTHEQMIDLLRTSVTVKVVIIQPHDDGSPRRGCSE

T5: TIAM2, Q8IVF5
T5 sequence (Q8IVF5 885-986, limits assumed, looked up): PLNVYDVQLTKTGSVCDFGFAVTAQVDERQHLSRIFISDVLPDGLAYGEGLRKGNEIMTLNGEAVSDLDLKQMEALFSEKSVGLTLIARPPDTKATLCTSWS

T6: MPDZ_5, O75970
T6 sequence (O75970 695-796, limits assumed, looked up): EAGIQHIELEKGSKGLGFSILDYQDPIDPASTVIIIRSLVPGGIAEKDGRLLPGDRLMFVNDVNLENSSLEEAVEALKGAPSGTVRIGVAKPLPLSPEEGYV

T7: HTRA4, P83105
T7 sequence (P83105 378-476, limits assumed, looked up): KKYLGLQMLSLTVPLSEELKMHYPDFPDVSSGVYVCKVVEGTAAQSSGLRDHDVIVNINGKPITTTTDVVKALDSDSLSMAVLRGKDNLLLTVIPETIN

T8: RAPGEF6, Q8TEU7
T8 sequence (Q8TEU7 525-625, limits assumed, looked up): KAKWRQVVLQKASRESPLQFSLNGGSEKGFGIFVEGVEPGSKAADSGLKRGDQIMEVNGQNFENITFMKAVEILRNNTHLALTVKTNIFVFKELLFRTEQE

T9: APBA2_2, Q99767
T9 sequence (Q99767 654-744, limits assumed, looked up): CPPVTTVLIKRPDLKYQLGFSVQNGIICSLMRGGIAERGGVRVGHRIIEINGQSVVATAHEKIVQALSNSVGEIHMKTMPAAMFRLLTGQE

T10: LNX2_3, Q8N448
T10 sequence (Q8N448 463-564, limits assumed, looked up): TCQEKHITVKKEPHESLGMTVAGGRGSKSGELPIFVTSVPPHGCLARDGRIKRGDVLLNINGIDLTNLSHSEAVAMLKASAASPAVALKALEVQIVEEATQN

T11: GRIP1_3, Q9Y3R0
T11 sequence (Q9Y3R0 247-346, limits assumed, looked up): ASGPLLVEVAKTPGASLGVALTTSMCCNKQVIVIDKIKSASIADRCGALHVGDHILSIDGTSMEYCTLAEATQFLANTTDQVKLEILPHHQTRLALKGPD


Columns and labels:
Assay in all cases: holdup assay
Set-up in all cases: key: below the threshold = too weak to quantify, mostly under pKd 3.1 to 4
Conditions in all cases: plain residues with an end cap or a label only (N-terminal biotin on a linker: ado-ado)
GRIP2_5, Q9C0E4 = target: GRIP2_5, Q9C0E4
Chain of GRIP2_5, Q9C0E4 (Q9C0E4 544-642): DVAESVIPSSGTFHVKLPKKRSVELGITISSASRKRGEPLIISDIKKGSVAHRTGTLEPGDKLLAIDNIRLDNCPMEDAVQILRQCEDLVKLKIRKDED

FRMPD2_1, Q68DX3 = target: FRMPD2_1, Q68DX3
Chain of FRMPD2_1, Q68DX3 (Q68DX3 770-861): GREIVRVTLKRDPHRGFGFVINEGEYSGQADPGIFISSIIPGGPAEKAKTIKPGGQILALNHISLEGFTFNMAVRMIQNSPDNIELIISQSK

PICK1, Q9NRD5 = target: PICK1, Q9NRD5
Chain of PICK1, Q9NRD5 (Q9NRD5 17-115): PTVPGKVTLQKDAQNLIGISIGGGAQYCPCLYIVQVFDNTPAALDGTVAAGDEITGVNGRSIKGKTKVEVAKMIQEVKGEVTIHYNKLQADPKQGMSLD

LRRC7, Q96NW7 = target: T1, LRRC7, Q96NW7
MAGI2_3, Q86UL8 = target: MAGI2_3, Q86UL8
Chain of MAGI2_3, Q86UL8 (Q86UL8 600-682): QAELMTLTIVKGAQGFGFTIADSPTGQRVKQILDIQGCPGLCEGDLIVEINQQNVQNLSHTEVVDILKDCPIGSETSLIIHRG

MPP6, Q9NZW5 = target: T2, MPP6, Q9NZW5
SNTB1, Q13884 = target: T3, SNTB1, Q13884
FRMPD2_2, Q68DX3 = target: FRMPD2_2, Q68DX3
Chain of FRMPD2_2, Q68DX3 (Q68DX3 944-1038): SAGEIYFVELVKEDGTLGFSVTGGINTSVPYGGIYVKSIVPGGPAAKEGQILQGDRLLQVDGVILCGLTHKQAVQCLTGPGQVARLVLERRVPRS

DLG1_1, Q12959 = target: DLG1_1, Q12959
IL16_1, Q14005 = target: IL16_1, Q14005
Chain of IL16_1, Q14005 (Q14005 210-306): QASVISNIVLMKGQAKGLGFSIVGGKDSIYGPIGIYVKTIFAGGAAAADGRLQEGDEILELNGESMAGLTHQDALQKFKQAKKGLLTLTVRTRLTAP

SIPA1L2, Q9P2F8 = target: T4, SIPA1L2, Q9P2F8
TIAM2, Q8IVF5 = target: T5, TIAM2, Q8IVF5
MPDZ_5, O75970 = target: T6, MPDZ_5, O75970
DLG4_1, P78352 = target: DLG4_1, P78352
Chain of DLG4_1, P78352 (P78352 62-152): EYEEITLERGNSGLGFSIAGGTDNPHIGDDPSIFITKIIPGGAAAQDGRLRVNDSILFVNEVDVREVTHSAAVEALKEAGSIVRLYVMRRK

HTRA4, P83105 = target: T7, HTRA4, P83105
MAST1, Q9Y2H9 = target: MAST1, Q9Y2H9
Chain of MAST1, Q9Y2H9 (Q9Y2H9 962-1065): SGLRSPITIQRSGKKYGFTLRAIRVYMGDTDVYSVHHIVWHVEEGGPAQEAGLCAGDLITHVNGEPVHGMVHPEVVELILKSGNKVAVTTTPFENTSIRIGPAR

HTRA1, Q92743 = target: HTRA1, Q92743
Chain of HTRA1, Q92743 (Q92743 360-477): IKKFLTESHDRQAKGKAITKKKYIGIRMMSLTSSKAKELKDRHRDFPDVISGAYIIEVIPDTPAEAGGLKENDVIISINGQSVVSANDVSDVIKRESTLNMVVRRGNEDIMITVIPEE

NHERF2_2, Q15599 = target: NHERF2_2, Q15599
Chain of NHERF2_2, Q15599 (Q15599 142-238): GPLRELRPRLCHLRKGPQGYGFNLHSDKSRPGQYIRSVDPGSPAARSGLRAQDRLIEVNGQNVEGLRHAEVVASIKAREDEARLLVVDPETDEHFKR

PTPN3, P26045 = target: PTPN3, P26045
Chain of PTPN3, P26045 (P26045 505-587): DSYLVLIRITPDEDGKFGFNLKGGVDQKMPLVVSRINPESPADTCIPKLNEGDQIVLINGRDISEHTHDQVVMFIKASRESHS

MAGI2_2, Q86UL8 = target: MAGI2_2, Q86UL8
Chain of MAGI2_2, Q86UL8 (Q86UL8 410-522): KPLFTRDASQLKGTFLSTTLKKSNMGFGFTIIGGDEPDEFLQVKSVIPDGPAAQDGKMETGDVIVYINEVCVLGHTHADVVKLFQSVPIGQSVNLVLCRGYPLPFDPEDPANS

DLG4_3, P78352 = target: DLG4_3, P78352
Chain of DLG4_3, P78352 (P78352 306-403): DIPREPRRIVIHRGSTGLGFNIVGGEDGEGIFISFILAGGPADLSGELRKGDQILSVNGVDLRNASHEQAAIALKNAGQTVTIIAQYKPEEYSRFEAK

RAPGEF6, Q8TEU7 = target: T8, RAPGEF6, Q8TEU7
APBA2_2, Q99767 = target: T9, APBA2_2, Q99767
PDLIM1, O00151 = target: PDLIM1, O00151
Chain of PDLIM1, O00151 (O00151 1-87): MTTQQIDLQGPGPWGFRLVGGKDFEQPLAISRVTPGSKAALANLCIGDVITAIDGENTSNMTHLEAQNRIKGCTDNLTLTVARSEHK

LDB3, O75112 = target: LDB3, O75112
Chain of LDB3, O75112 (O75112 1-94): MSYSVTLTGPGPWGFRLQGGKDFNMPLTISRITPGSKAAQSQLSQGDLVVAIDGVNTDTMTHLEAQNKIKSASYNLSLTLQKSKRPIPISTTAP

LNX2_3, Q8N448 = target: T10, LNX2_3, Q8N448
GRIP1_3, Q9Y3R0 = target: T11, GRIP1_3, Q9Y3R0

Binder | pKd (GRIP2_5, Q9C0E4) | pKd (FRMPD2_1, Q68DX3) | pKd (PICK1, Q9NRD5) | pKd (LRRC7, Q96NW7) | pKd (MAGI2_3, Q86UL8) | pKd (MPP6, Q9NZW5) | pKd (SNTB1, Q13884) | pKd (FRMPD2_2, Q68DX3) | pKd (DLG1_1, Q12959) | pKd (IL16_1, Q14005) | pKd (SIPA1L2, Q9P2F8) | pKd (TIAM2, Q8IVF5) | pKd (MPDZ_5, O75970) | pKd (DLG4_1, P78352) | pKd (HTRA4, P83105) | pKd (MAST1, Q9Y2H9) | pKd (HTRA1, Q92743) | pKd (NHERF2_2, Q15599) | pKd (PTPN3, P26045) | pKd (MAGI2_2, Q86UL8) | other results
WRSKRTDTLL [RAMP3, O60896] | below the threshold | below the threshold | below the threshold | below the threshold | below the threshold | 3.75 | below the threshold | below the threshold | 3.84 | below the threshold | below the threshold | below the threshold | below the threshold | 4.02 | below the threshold | 3.84 | 4.26 | 4.05 | 4.22 | 4.23 | pKd (DLG4_3, P78352): below the threshold; pKd (RAPGEF6, Q8TEU7): below the threshold; pKd (APBA2_2, Q99767): below the threshold; pKd (PDLIM1, O00151): below the threshold; pKd (LDB3, O75112): below the threshold; pKd (LNX2_3, Q8N448): below the threshold; pKd (GRIP1_3, Q9Y3R0): below the threshold
VISERNSTTV [C3AR1, Q16581] | below the threshold | below the threshold | below the threshold | below the threshold | below the threshold | below the threshold | 3.77 | below the threshold | 4.44 | below the threshold | below the threshold | below the threshold | below the threshold | 4.58 | 4.11 | 3.74 | 4.2 | 3.82 | 4.01 | 4.51 | pKd (DLG4_3, P78352): 3.54; pKd (RAPGEF6, Q8TEU7): below the threshold; pKd (APBA2_2, Q99767): below the threshold; pKd (PDLIM1, O00151): below the threshold; pKd (LDB3, O75112): below the threshold; pKd (LNX2_3, Q8N448): below the threshold; pKd (GRIP1_3, Q9Y3R0): below the threshold
REVVMRVTTV [MARCHF9, Q86YJ5] | below the threshold | below the threshold | below the threshold | below the threshold | 4.6 | 3.63 | 5.37 | 4.11 | 5.24 | 4.17 | below the threshold | 3.85 | below the threshold | 5.06 | 4.5 | 4.65 | 4.83 | below the threshold | 4.91 | 5.14 | pKd (DLG4_3, P78352): 4.81; pKd (RAPGEF6, Q8TEU7): below the threshold; pKd (APBA2_2, Q99767): below the threshold; pKd (PDLIM1, O00151): below the threshold; pKd (LDB3, O75112): below the threshold; pKd (LNX2_3, Q8N448): below the threshold; pKd (GRIP1_3, Q9Y3R0): below the threshold
QELLEYETTV [XKR7, Q5GH72] | 3.48 | below the threshold | below the threshold | below the threshold | below the threshold | below the threshold | 5.07 | 4.83 | 4.96 | 4.12 | below the threshold | below the threshold | below the threshold | 4.94 | below the threshold | 4.97 | 4.69 | 4.33 | 4.85 | 3.76 | pKd (DLG4_3, P78352): below the threshold; pKd (RAPGEF6, Q8TEU7): below the threshold; pKd (APBA2_2, Q99767): below the threshold; pKd (PDLIM1, O00151): below the threshold; pKd (LDB3, O75112): below the threshold; pKd (LNX2_3, Q8N448): below the threshold; pKd (GRIP1_3, Q9Y3R0): below the threshold
PDGEMMEVLI [AMOTL1, Q8IY63] | below the threshold | below the threshold | below the threshold | below the threshold | below the threshold | below the threshold | below the threshold | below the threshold | below the threshold | below the threshold | below the threshold | 3.86 | below the threshold | below the threshold | 3.75 | 3.71 | 5.05 | below the threshold | below the threshold | below the threshold | pKd (DLG4_3, P78352): below the threshold; pKd (RAPGEF6, Q8TEU7): below the threshold; pKd (APBA2_2, Q99767): below the threshold; pKd (PDLIM1, O00151): below the threshold; pKd (LDB3, O75112): below the threshold; pKd (LNX2_3, Q8N448): below the threshold; pKd (GRIP1_3, Q9Y3R0): below the threshold
